# Laboratory results taken from the nanobody polyreactivity screen of Harvey et al. (2022).
# Test: yeast display, Sf9 membrane polyspecificity reagent, FACS + sequencing; frameworks hold sequencing errors
# In short: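 Synthetic nanobody libraries on Saccharomyces cerevisiae BJ5465 were galactose-induced for 36–48 hours, stained 1 hour at 4 °C with 10% biotinylated, detergent-solubilized Sf9 membrane reagent and enriched on streptavidin microbeads. FACS then separated cells into low and high (top ~1%) gates by anti-HA (expression) and streptavidin (reagent binding) fluorescence. Genes were colony-PCR amplified, MiSeq 2 × 250 sequenced and CDR-length filtered. A clone's polyreactivity label is that of its gate of origin.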
row,Sequence,polyreactivity (PSR sort gate)
1,QVQLVESGGGLVQAGGSLRLSCAASGRTFLYNAMGWYRQAHGKERELVAAIDQSGGSTYYADSVKGRFTISRDNAKNTVYLQMNSLKPEDTAVYYCAAYWEGSWYYKKYYYWGQGTQVTVSS,high polyreactivity
2,QVQLVESGGGLVQAGGSLRLSCAASGIIFAGNTMGWYIQAPWKERELVAAITWSGGSTYYADSVKGRFTISRDNAKNTVYLQMNSQKPEDTAVYYCAAYYGGYGWDDKYDYWGQGTQVTVSS,low polyreactivity
3,QVQLVESGGGLVQAGGSLRLSCAASGRIFKRNAMGWYRQAPGKERELVAAISWRGGSTYYADSVKGRFTISRDNAKNTVYLQMNSLKPEDTAVYYCNVGYGGSSDGGYDYWGQGTQVTVSS,high polyreactivity
4,QVQLVESGGGLVQAGGSLRLSCAASGRIFVYNTMGWYRQAPGKERELVAAITSGGNTYYADSVKGRFTISRDNAKNSVYLQMNSLKPEDTAVYYCNAYPGYDPYRRYDYWGQGTQVTVSS,high polyreactivity
5,QVQLVESGGGLVQAGGSLRLSCPASGRIFGVYAMGWYRQAPGKESELVAAIRYRGGSTYYADSVKGRFTISRDNAKNSVYLQMNSLIPEDTAVYYCAAEVWGVGYYAPYGYWGQGTQVTVSS,high polyreactivity
6,QVQLVESGGGLVQAGGSLRLSCAASGYIFTVYAMGWYRQAPGKERELVAAINWSDGSTYYADSVKGRFTISRDNAKNTVYLQMNSLKPEDTAVYYCATEYWYGIYGYDYWGQGTQVSVSS,high polyreactivity
7,QVQLVESGGGLVQAGGRLRLSCAASASTIVGNAMGWYRQAPGKERELVATISNSGGRTYYADSVKGRFTISRDNSKYTVYLQMNSLKPEDTAVYYCNADIYPHDGYPWQGDYDYWGQGTQVTVSS,low polyreactivity
8,QVQLVESGGGLVQAGGSLRLSCAASGSTFINYAMGWYREAPGKERELVAAISKGGGSTYYADSVKGRFTISRDTAKNTVYLQINSLKPEDTAVYDCARARSGGSHREYYWGQGTQVTVSS,high polyreactivity
9,QVQLVESGGGLVQAGGSLRLSCAASGRTFGSNAMGWYRQAPGKERELVAAITRRGGSTYYADSVKGRFTISRDNAMNTVYLQMNSLKPEDTAVYYCATDPVSTRGSDYWGQGTQVTVSS,low polyreactivity
10,QVQLVESGGGLVQAGGSLRLSCAASGRIFLFYDMGWYRQAPGKERELVATISFRGGSTYYADSVKGRFTISRDNAKNTVYLQMNSLKPEDTAVYYCAKQNKRGYSTSAYYYWGQGTQVTVSS,low polyreactivity
11,QVQHVESGGGLVQAGGSLRLSCAASGSIFYIYAMGWYRQAPGKERELVASISRSGGSTYYADSVKGRFTISRDNAKNTVYLQMNSLKPEDTAVYYCAAVITFYRYPPGETYYYWGQGTQVTVSS,high polyreactivity
12,QVQLVESGGGFVQAGGSLRLSCAASGVTYGGYAMGWYRQAPGKERELVAAITGSAGNTFYADSVKGRFTISRDNAKHTVYLQMNSLKPEDTAVYYCANTWYPWSRYGYYGRYDSWGLGTQVTVSS,low polyreactivity
13,QVQLVESGGGLVQAGGSLRLSCAASGRTIASYTMGWYRQAPGKERELVAAISKSGGSTYYADSVKGRFTISRDNAKNTVYLQMNSLKPEDTAVYYCAAGVPFWFWFEMDYWGQGTQVTVSS,high polyreactivity
14,QVQLVESGGGLVQAGGSLRLSCAASGSIFYYYAMGWYRQAPGKERELVAAISRNGGSTSYADSVKGRFTISRDNAKNTVYLQMNSLKPEDTAVYYCNTYGGYKYDYWGQGTQVTVSS,low polyreactivity
15,QVQLVESGGGLVQAGGSLRLSCAASGNIFVRYAMGWYRQAPGKERELVAAISRGGRTNYADSVKGRFTISRDNAKNTVYLQMNSLKPEDTAVYYCAADVRYHFYYWGQGTQVTVSS,high polyreactivity
16,QVQLVESGGGLVQAGGSLRLSCAASGSTFQSYAMGWSRPAPGKERELVAAISFSGGSTYYADSVKGRFTISRDHAKNTVYLQMNSLKPEDTAVYYCAADVAYVEYAYWGQGTQVTVSS,low polyreactivity
17,QVQLVESGGGLLQAGGSLRISCAASGRIFYAKAMGRYRQAPGKERELVAGISSGGITNYADSVKGRFTISRDNAKNTVYLQMNSLKPEDTAVYYCAVESWNRWRNRNDYWGQGTQVSVSS,low polyreactivity
18,QVQLVESCGGLVQAGCSLRLSCAASGSIRYYPMGWYRQAPGKERELVAGITRNGGSTYYADSVKGRFTISRDNAKITVYLQMNSLKPEDTAVYYFAAGFTTRRGEYNYWGQGTQVTVSS,high polyreactivity
19,QVQLVESGGGLVQAGGSLRLSCAASGSTFFEYTMGWYRQAPGKEREFVADIRGRDGSTSYADSVKGRFTISRDNAKNTVYLQMNSLKPEDTAVYYCNADVTRWTRSPWPYTYDYWGQGTQVTVSS,low polyreactivity
20,EEELVESGGGLVQAGGSLRLSCAASGRTFARNAMGWYRQAPGKERELVAGINFSGGNTYYADSVKGRFTISRDNAKNTVYLQMNSLKPEDTAVYYCAARRYWEGDYWGHGTQVTVSS,low polyreactivity
21,PVQLVESGGGLVQAGGSLRLSCAASGSTFDAYDLGWYRQAPGKERELVAAINWSGGITYYADSVKGRFTISRDNAKNTVYLQMNSLKPEDTAVYYCNADASFYSRVNYWGQGTQVTVSS,high polyreactivity
22,QVQLVESGRGLVQAGGSLRLSCAPSGLNFVRYAMGWYRQAPGKERELVARITSRGTSTYYADSVKGRFTISRDNAKNTVYLQMNSLKPEDTAVYYCIKFRSFRDKTRYDYWGQGTQVTVSS,low polyreactivity

row,Sequence,polyreactivity (PSR sort gate)
1,QVQLVESGGGLVQAGGSLRLSCAASGITFTSYAMGWYRQATGKERELVAAITSSGSSTYYADSVKGRFTISRDNAKNTVYLQMNSLKPEDTAVYYCAAKHVGWYVQEEDYWGQGTQVTVSS,low polyreactivity
2,QFQLVESGGGLVQAGGSLRLSCAASGLIFRHYVMGWYRQAPGKERELVAAITSRGGTTYYADSVKGRFTISRDNEKNTVYLQMNIMKPEDTAVYYCNAVDIDPTRYEYDYWGQVTQVTVSS,high polyreactivity
3,QVQLVESGGGLVQAGGSLRLSCAPSGITFSYSAMGWYRQAPGKERELVAAISGSGTSTYYADSVKGRFTISRDNAKNTVYVQMNSLKPEVTAVYYCAAKGRKSVYSRNSWGQGTQVTVSS,high polyreactivity
4,QVQLVESGGGLVQAGGRRRLSCAASGSTLRDYVMGWYRQAPGKERELVAAITGRVDDTYYADSVKGRFTISRDNAKNTVYLQMNSLKPEDTAGYYCAADYSVTLRIGGFYWFYAFDYWGQGSQVTVSS,low polyreactivity
5,QVHLVESGGGLVQAGGSLRLSCAASGGTINRYAMGWSRQAPGKERELVAAITYSGGRTYYADSVKGRFTISRDNAKNTVYLQMNSLKPEDTAVYYCAARVGKIISDSWGQGTQVTVSS,high polyreactivity
6,QVQLVESGGGLVQAGGSLRLSCAASGSTLVTNPMGWYRQAPGKERELVAAITFSGGTTYYADSVKGRFTISRDTAKNTVYLHMNSLKPEDTAVYYCAAEIWLEYVGYDYWGQGTQVTVSS,high polyreactivity
7,QVQLVESGGGLVQAGGSLRLSCAASGIYINAMGWYRQAPGKERELVAAISRGGSTYYADSVKGRFTISRDNAKNTVYLQMNSLKPEDTAVYYCAKLIGRWRLYHTFVKGDYWGQGTQVTVSS,high polyreactivity
8,QVQLVESGGGLVQAGGSLRLSCAASGITFSYNAMGWSRQAPGKERELVAAIRVGDGSTYYADSVKGRFTISRDNAKNTVYLQMNSLKPEDTAVYYCNARYLRLRYPYTDEYNYWGQGTQVTVSS,low polyreactivity
9,QVQLVESGGGLVQAGGSLRLSCAASGFTFPYYAMGWYRQAPGKERELVAGISWDGDSTYYADSVKGRFTISRDNAKNTVYLQMNSLKPEDTAVYYCAAGYITYYYGEYGYWGQGTQVTVSS,low polyreactivity
10,QVQLVESGGGLVQAGGSLRLSCAASGTFPGNAMGWYRQPPGKERELVATITRGGRTYYADSVKGRVTISRDNANNTVYLQMNSLKPEDTAVYYCNTSVYSGKIRGYDYGGQGTQVTVSS,high polyreactivity
11,QVQLVESGGGLVQAGGSLRLSCAASGSIFGFNAMGWYRQAPGKERELVAGITSGDRTNYADSVKGRFTISRDNAKNTVYLQMNSLKPEDTAVYYCAARKYVFFKMYYWGQGTQVTVSS,low polyreactivity
12,QVQLVESGGGLVQAGGSLRLSCAASGSTFKRNAMGWYRQAPGKERELVAAISFRGGSTYYADSVKGRFTISRDNAKNTVYLQMNSLKPEDTAVYSCAAGIYRIRGGGISFDYWGQGTQVTVSS,high polyreactivity
13,QVQLVESGGGLVQAGGSLRLSCAASGLTFKSYAMGWYRQAPGKETELVAAISWRGGRTYYADSVKGRFTISRDNAKNTVYLQMNSLKPEDTAVYYCNARSQQWWLSRYNYWGQGTQVTVSS,high polyreactivity
14,QVQLVESGGGLVQAGGSLRLSCAASGLIFDVYAMGWYRQAPGKERELVAVISRGGSTNYADSVKGRFTISRDNANNTVYLQMNSLKPEDTAVYYCAAGLVVSYPQNNYSVSFYARGYWGQGTQVTVSS,high polyreactivity
15,QVHLVESGGGIVQAGGSLRLSCAASGIIFHWYAMGWYRQAPGKERELVAAITQSGGSTSYADSVKGRFTISRDNAKNTVYLQMNSLKPEDTAVYNCSKDYAYTLWENYYAFNYWGQGTQVTVSS,low polyreactivity
16,QVQLVESGGGLVQAGGSLRLSCAASGFTIDGYAMGGYRQAPGKERELVAAISGGGSTYYADSVKGRFTISRDNAKNTVYLQMNSLKPEDTAVYYCAAARITRGRRYDYWGQGTQVTVSS,high polyreactivity
17,QVQLVESGGGLVQAGGSLRLSCAASGSIFWYYAMGWYRQAPGKERELVAAISRSGGSTYYADSVKGRFTISRDNAKNTVYLQMNSLKPEDTAVYYCAAGYSSLRRFGVYYWGQGTQVTVSS,high polyreactivity
18,QVQLVESRGGLVQAGGSLRLSCAASGITFYTYTMGWYRQAPGKERELVAVISASGARTYYADSVKGRFTISRDNAKNTVYLQMNSLKPEDTAVYYFAARSFYISPWRFDYWGQGTQVTVSS,high polyreactivity
19,QVQLVESGGGLVQAGGSLRLSCAASGIPLVSYARGWYRPAPGKVRELVAAISTSGGRTRYADSVKGRFTISRDHAKNTVYIQMNSLKPEDTAVYYCAAELVEPRYNHLPGDGNYWGQGTQVTGSS,high polyreactivity
20,QVQLVESGGGLVQAGGSLRLSCAASGNTFVQNDMGWYRQAPGKEREFVAAITWIGGSTRYADSVKGRFTISRDNAKNTVYLQMNSLKPEDTAVYYCAVKPVGWPRYRVDYWGQGTQVTVSS,high polyreactivity
21,QDQLVESGGGLVQAGGSLRLSCAASGTIFFGYSMGSYRQAPGKERDLVASISSADTTYYADSVKGRFTISRDNAKNTVYLQMNSLKPEDTAVYYCAAREGQLWEDGDYWGQGTQVTVSS,low polyreactivity
